The source of these data is patent US20180037651A1.

For the experiment, the target named is GPRC5D (MM.1R cells) (UniProt Q9NZD1). As to the kind of experiment: FACS cell binding; MM.1R cells.

Turning to Fab6300, the EC50 was 0.122 µM.

For orientation: EC50 means the concentration at which the effect is half-maximal. High values mean a need for much substance, low ones an effect from little substance.
